Usually IC50 stands for the concentration that gives 50% inhibition. One may read the EC50 as the concentration at which the effect is half-maximal. Lower therefore signals higher potency in that assay. Broadly, the Kd is the free concentration of one partner at which half of the binding sites on the other are occupied at equilibrium, for simple one-to-one binding. A higher Kd goes with lower affinity.

Read-outs that look alike come from different tables or passages of the source.

This note sets out measurements from patent US20230331848A1 (BIOSION, published 2023).

Test [1] concerns the target T1, human PD-1-his protein (Cat#:PD1-H5221, Acro biosystems Inc.) (human, UniProt Q15116 25-167).
T1 construct: not shown: his tag
Put plainly: BLI (Octet RED96), cell supernatant antibody captured on AHC sensor, human PD-1-his in solution. The procedure:
Briefly, AHC biosensors (anti-human IgG Fe capture, from ForteBio) were presoaked with 10 mM glycine (pH 1.5) for 3 seconds, and then dipped in a well with running buffer (0.5% w/v BSA in PBST) for 3 seconds, the soaking and dipping steps were repeated for three times. […] A new baseline was run for 100 seconds in another well with running buffer. Then the sensors were dipped in a well with serially diluted human PD-1-his protein (Cat#:PD1-H5221, Acro biosystems Inc., starting at 100 nM with a two-fold serial dilution) in running buffer for 120 seconds, and then immersed in a baseline well for […]. Finally, sensors were presoaked with 10 mM glycine (pH 1.5) for 30 seconds, and then were dipped in a well with running buffer for 30 seconds. The association and dissociation curves were fit to a 1:1 Langmuir binding model using ForteBio Data Analysis 8.1 evaluation software.
(Biolayer interferometry detects binding as a change in optical thickness at a sensor tip.)

For test [2], the target named is T2, in house made human PD-1-Fc protein (human, biotin-labeled (sites not given)).
T2 construct: also called biotin-labeled human PD-1-Fc
As to the kind of experiment: competitive ELISA: antibody pre-mixed with biotin-labeled human PD-1-Fc, added to coated human PD-L1-Fc (blocked ligand); unit from the axis 'Con of mAb, nM.'. The procedure: (§1) The activities of the anti-PD1 antibodies of the disclosure to block PD-L1-PD1 binding were measured in a competitive ELISA.
(§2) Briefly, 100 μl human PD-L1-Fc protein (prepared in-house with SEQ ID NO: 28) at 2 μg/mL in carbonate/bicarbonate buffer (pH 9.6) was coated on 96-well micro plates overnight at 4° C., Plates were washed with wash buffer (PBS+0.05% w/v Tween-20, PBST), and blocked with 5% w/v non-fatty milk in PBST for 2 hours at 37° C. […] After incubation at 37° C. for 40 minutes, plates were washed using wash buffer. […] Plates were washed again using wash buffer. Finally, TMB was added and the reaction was stopped using 1M H₂SO₄. The absorbance was read on a microplate reader using dual wavelength mode with 450 nm for TMB and 630 nm as the reference wavelength, then the OD (450-630) values were plotted against antibody concentrations. Data was analyzed using Graphpad Prism software and IC₅₀ values were reported.
For orientation: In an ELISA, binding on a coated surface is turned into a signal by an enzyme label.

Test [3] addresses T2, in house made human PD-1-Fc protein. As to the kind of experiment: blocking FACS: biotin human PD-1-Fc + antibody on GS-C2/PD-L1 cells (competitor: cell-surface human PD-L1). The procedure: (§3) GS-C2/PDL1 cells were harvested from cell culture flasks at the log phase, washed twice and re-suspended in PBS containing 2% v/v Fetal Bovine Serum (FACS buffer). GS-C2/PD-L1 cells, 0.6×10⁵ cells per welt, were incubated in 96 well-plates with 100 the antibody/PD1-Fc mixture for 40 minutes at 4° C. Cells were washed twice with FACS buffer, added with 100 R-Phycoerythrin Streptavidin (1:500 dilution in FACS buffer, Cat#:016-110-084, Jackson Immunoresearch), and incubated for 40 minutes at 4° C. in dark. Cells were washed twice and re-suspended in FACS buffer. Fluorescence was measured using a Becton Dickinson FACS Canto II-HTS equipment. Data was analyzed using Graphpad Prism software and IC₅₀ values were reported.

For test [4] the target is unchanged. As to the kind of experiment: competitive ELISA: antibody pre-mixed with biotin-labeled human PD-1-Fc, added to coated human PD-L1-Fc (blocked ligand); unit from the axis 'Con of mAb, nM.'. The procedure: as §1, §2
The source holds these as a separate data set.

The target is the same in test [5]. Put plainly: capture ELISA: antibody captured on anti-human IgG coated plate, biotin-labeled human PD-1-Fc detected with streptavidin-HRP; unit from the axis 'Con of mAb, nM.'.
Test [6] has the same target. Described as above. This is another data set of the same source.
Test [7] concerns the target T3, cynomolgus PD-1-his protein (Cat#:PD1-05223, Acro biosystems Inc.) (cynomolgus, UniProt B0LAJ3 25-170).
T3 construct: Bought protein used in Biacore and indirect ELISA; also called monkey PD-1; Cyno PD-1
Put plainly: indirect ELISA on coated cynomolgus PD-1-his; unit from the axis 'Con of mAb, nM.'. The procedure:
(§4) Briefly, 96-well micro plates were coated with 100 μl 2 μg/ml mouse PD-1-his (Cat#:50124-M08H, Sino Biological Inc) or 2 μg,/ml cynomolgus PD-1-his (Cat#:PD1-05223, Acro biosystems Inc.) in carbonate/bicarbonate buffer (pH 9.6) for 2 hours at 37° C. Plates were washed once with wash buffer (PBST, PBS+0.05% Tween-20) and then blocked with 200 μl blocking buffer (5% w/v non-fatty milk in PBST) for 2 hours at 37° C. […] ELISA plates were washed 4 times and incubated with Peroxidase AffiniPure goat anti-mouse IgG, Fcγ Fragment Specific (1:5000 dilution in PBST buffer, Cat#:115-035-071, Jackson ImmunoResearch Laboratories, Inc., 100 μl/well) or Peroxidase AffiniPure F(ab′)₂ Fragment Goat Anti-Human IgG, Fcγ fragment specific (Cat#:109-036-098, Jackson ImmunoResearch, for the controls) for 40 minutes at 37° C. After a final wash, plates were incubated with 100 μl/well TMB (Cat#:TMB-S-002, innoreagents) at room temperature. The reaction was stopped 3-10 minutes later with 50 μl/well 1M H₂SO₄, and the absorbance was read on a microplate reader using dual wavelength mode with 450 nm for TMB and 630 nm as the reference wavelength. Then the OD (450-630) values were plotted against antibody concentrations. Data was analyzed using GraphPad Prism software and EC₅₀ values were reported.

The target in test [8] is T2, in house made human PD-1-Fc protein. Put plainly: cell-based blocking FACS: antibody pre-mixed with biotin-labeled human PD-1-Fc, added to GS-C2/PD-L1 cells expressing human PD-L1 (blocked ligand); unit from the axis 'Con of mAb, nM.'. The procedure:
as §3

In test [9] the target is T3, cynomolgus PD-1-his protein …. Put plainly: indirect ELISA on coated cynomolgus PD-1-his.
Test [10] deals with T2, in house made human PD-1-Fc protein. As to the kind of experiment: competitive ELISA: soluble Pembrolizumab pre-mixed with biotin-labeled human PD-1-Fc, added to coated Pembrolizumab (self-competition); unit from the axis 'Con of mAb, nM.'.
The target in test [11] is T3, cynomolgus PD-1-his protein …. Put plainly: indirect ELISA on coated cynomolgus PD-1-his; unit from the axis 'Con of mAb, nM.'. How it is done:
as §4
The source holds these as a separate data set.

Test [12] has as its target T2, in house made human PD-1-Fc protein. As to the kind of experiment: competitive ELISA: soluble Pembrolizumab pre-mixed with biotin-labeled human PD-1-Fc, added to coated Pembrolizumab (self-competition); unit from the axis 'Con of mAb, nM.'. This is another data set of the same source.
In test [13] the target is T3, cynomolgus PD-1-his protein …. As to the kind of experiment: SPR (Biacore T200), antibody captured on Protein G chip, PD-1-his in flow, 1:1 fit. (In general: Surface plasmon resonance follows binding to a sensor surface in real time, without labels.)

B1: humanized antibody huE1A9C8A7-V3 (antibody, human IgG4 S228P, kappa, V domains shown)
VH: QVQLVQSGAEVVKPGASVKISCKASGYTFSDYVMHWVRQAPGQSLEWIGVISTYHIPAVYNQKFKGKATMTVDKSTSTVYLELSSLRSEDTAVYYCAREVYGDSYYFDVWGQGTTVTVSS
VL: DIVMTQTPLSLPVTPGEPASISCRSSQSIVHSNGNTYLEWYLQKPGQSPQLLIYKVSNRFSGVPDRFSGSGSGTDFTLKISRVEAEDVGVYYCFQGSHVPYTFGGGTKVEIKR
notes: Human IgG4/kappa
B1: in test [1], the binding result is recorded as “no binding (tested: antigen series starting at 100 nM)”.

B2: Pembrolizumab (antibody, V domains shown)
VH: QVQLVQSGVEVKKPGASVKVSCKASGYTFTNYYMYWVRQAPGQGLEWMGGINPSNGGTNFNEKFKNRVTLTTDSSTTTAYMELKSLQFDDTAVYYCARRDYRFDMGFDYWGQGTTVTVSS
VL: EIVLTQSPATLSLSPGERATLSCRASKGVSTSGYSYLHWYQQKPGQAPRLLIYLASYLESGVPARFSGSGSGTDFTLTISSLEPEDFAVYYCQHSRDLPLTFGGGTKVEIKR
On to B2, for which the IC50 in [2] came to 345 pM; in [3] it was 490 pM; in test [4], 370 pM; in test [8], 320 pM; in test [10], 73.5 pM; in test [12] it was 75.8 pM. Moreover, the EC50 came out at 118 pM in [5]; 113 pM in test [6]; 95.7 pM in test [7]; 200 pM in test [9]; 93 pM in test [11].

B3: Nivolumab (antibody, V domains shown)
VH: QVQLVESGGGVVQPGRSLRLDCKASGITFSNSGMHWVRQAPGKGLEWVAVIWYDGSKRYYADSVKGRFTISRDNSKNTLFLQMNSLRAEDTAVYYCATNDDYWGQGTLVTVSS
VL: EIVLTQSPATLSLSPGERATLSCRASQSVSSYLAWYQQKPGQAPRLLIYDASNRATGIPARFSGSGSGTDFTLTISSLEPEDFAVYYCQQSSNWPRTFGQGTKVEIK
Turning to B3, the IC50 in [3] was 520 pM. In addition, in test [9], it took 230 pM to reach a half-maximal effect (EC50). In [13], this molecule gave a Kd of 5640 pM.
